Where no end group is shown, it is not given here. [ ]: non-standard residue; d: D form. Lys(Me3) = C[N+](C)(C)CCCC[C@H](N)C(=O)O
Biological target: His-tagged EED (His6X-EED), full length (UniProt O75530 1-441)
Assay: ITC

Sequence of His-tagged EED (His6X-EED), full length (O75530 whole entry): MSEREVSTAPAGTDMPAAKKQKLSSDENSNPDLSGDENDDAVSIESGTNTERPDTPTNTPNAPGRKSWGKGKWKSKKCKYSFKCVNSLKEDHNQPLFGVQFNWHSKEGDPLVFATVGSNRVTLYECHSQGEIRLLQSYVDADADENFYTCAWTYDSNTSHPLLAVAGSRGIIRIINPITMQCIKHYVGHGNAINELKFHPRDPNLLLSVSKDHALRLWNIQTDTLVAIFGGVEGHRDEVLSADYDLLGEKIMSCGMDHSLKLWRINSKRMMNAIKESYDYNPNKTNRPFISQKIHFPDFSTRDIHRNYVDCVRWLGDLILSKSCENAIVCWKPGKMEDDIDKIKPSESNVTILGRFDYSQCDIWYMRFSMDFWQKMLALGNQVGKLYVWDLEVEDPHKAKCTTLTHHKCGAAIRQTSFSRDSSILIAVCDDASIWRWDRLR

Row | Kd [µM] | Binder
1 | 8.82 ± 2.06 | QR[Lys(Me3)]FA (peptide, UniProt Q92833 114-118, looked up) [Jarid2_(114–118)K116me3]
2 | 1.14 ± 0.14 | XKF (N-terminal (2S,3aS,7aS)-octahydro-1H-indole cap; methyl-isopropyl lysine (Kme,iPr); C-terminal piperidinyl ring in place of leucine) [UNC5115]
